Experimental data: patent US6913892
Like-named read-outs stand apart in the source and are kept apart here.

Legend:
[1] = target: human Y2 receptor (human) (UniProt P49146); assay: 125I-PYY displacement, COS-7 membranes
[2] = target: human Y4 receptor (human) (UniProt P0DQD5); assay: 125I-PYY displacement, COS-7 membranes
[3] = target: human Y1 receptor (human) (UniProt P25929); assay: 125I-PYY displacement, COS-7 membranes
rat Y4 receptor (rat) = rat Y4 receptor (rat) (UniProt Q63447); assay: 125I-PYY displacement, COS-7 membranes
[4] = target: human Y4 receptor (human) (UniProt P0DQD5); assay: 125I-PYY displacement, COS-7 membranes; remark: listed apart in the source
[5] = target: human Y4 receptor (human) (UniProt P0DQD5); assay: cell-based or functional assay
[6] = target: human Y4 receptor (human) (UniProt P0DQD5); assay: 125I-PYY displacement, COS-7 membranes (as in Table 3)
[7] = target: Y2-like receptor population expressed by human SK-N-Be(2) neuroblastoma cells; assay: 125I-PYY displacement, SK-N-Be(2) membranes
[8] = target: Y2-like receptor population expressed by human SK-N-Be(2) neuroblastoma cells; assay: ratio of Ki values, 125I-PYY displacement
[9] = target: human Y4 receptor (human) (UniProt P0DQD5); assay: 125I-PYY displacement, COS-7 membranes; remark: listed apart in the source
[10] = target: human Y1 receptor (human) (UniProt P25929); assay: 125I-PYY displacement, COS-7 membranes; remark: listed apart in the source
[11] = target: human Y4 receptor (human) (UniProt P0DQD5); assay: ratio of Ki values, 125I-PYY displacement
[12] = target: human Y1 receptor (human) (UniProt P25929); assay: ratio of Ki values, 125I-PYY displacement

human Y4 receptor (human), sequence (P0DQD5 whole entry): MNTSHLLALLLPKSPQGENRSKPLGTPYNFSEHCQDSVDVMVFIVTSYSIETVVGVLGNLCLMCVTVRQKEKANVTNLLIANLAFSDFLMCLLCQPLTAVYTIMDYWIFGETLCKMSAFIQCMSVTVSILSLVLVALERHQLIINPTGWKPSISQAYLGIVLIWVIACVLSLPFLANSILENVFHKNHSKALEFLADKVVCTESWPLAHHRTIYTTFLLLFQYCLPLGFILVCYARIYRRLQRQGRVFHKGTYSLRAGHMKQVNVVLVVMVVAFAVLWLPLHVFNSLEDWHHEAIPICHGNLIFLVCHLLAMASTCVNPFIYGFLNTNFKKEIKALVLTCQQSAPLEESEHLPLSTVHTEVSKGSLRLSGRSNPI
human Y2 receptor (human), sequence (P49146 whole entry): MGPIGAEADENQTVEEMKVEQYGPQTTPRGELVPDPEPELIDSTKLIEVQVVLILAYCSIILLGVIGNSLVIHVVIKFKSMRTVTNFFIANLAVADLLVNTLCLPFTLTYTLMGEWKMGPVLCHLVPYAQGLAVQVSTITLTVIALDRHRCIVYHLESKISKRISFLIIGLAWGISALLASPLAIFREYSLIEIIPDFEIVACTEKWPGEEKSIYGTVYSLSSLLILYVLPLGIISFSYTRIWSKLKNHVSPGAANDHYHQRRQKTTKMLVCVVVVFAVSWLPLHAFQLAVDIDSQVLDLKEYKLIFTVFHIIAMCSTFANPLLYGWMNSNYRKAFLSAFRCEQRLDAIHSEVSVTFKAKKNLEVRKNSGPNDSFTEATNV
human Y1 receptor (human), sequence (P25929 whole entry): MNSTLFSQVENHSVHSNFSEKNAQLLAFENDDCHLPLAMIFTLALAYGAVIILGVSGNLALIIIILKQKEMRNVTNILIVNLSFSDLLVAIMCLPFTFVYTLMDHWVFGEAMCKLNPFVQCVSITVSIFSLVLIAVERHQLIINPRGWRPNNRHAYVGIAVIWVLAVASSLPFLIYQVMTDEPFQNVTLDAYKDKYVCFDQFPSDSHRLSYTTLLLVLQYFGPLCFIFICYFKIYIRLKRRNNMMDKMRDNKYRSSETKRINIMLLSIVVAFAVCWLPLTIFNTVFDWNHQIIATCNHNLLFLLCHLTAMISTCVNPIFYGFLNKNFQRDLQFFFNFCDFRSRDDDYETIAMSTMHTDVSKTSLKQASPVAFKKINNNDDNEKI
PP, salmon (peptide), sequence (P69092 whole entry): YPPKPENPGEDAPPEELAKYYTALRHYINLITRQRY
rat Y4 receptor (rat), sequence (Q63447 whole entry R262P): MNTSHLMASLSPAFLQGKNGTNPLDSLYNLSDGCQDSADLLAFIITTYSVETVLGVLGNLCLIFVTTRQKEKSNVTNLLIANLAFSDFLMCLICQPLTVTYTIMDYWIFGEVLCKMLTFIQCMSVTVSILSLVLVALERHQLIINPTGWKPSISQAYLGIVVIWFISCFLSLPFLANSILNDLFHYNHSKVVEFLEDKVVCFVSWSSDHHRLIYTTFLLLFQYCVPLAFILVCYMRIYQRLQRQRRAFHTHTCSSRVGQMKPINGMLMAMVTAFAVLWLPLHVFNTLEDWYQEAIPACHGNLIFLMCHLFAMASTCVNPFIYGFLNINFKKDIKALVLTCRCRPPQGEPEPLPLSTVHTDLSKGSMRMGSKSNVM

| Ki [1] | Ki [2] | Ki [3] | Ki [7] | Ki [9] | Ki [10] | Substance | also measured |
| --- | --- | --- | --- | --- | --- | --- | --- |
| 3.5 nM | 120 nM | 73 nM | – | – | – | C2-NPY, porcine (peptide) | Ki (rat Y4 receptor (rat)): 22 nM |
| – | – | – | – | – | – | PP31-36 free acid, human (from UniProt P01298 60-65) (peptide) | Ki [4]: > 10000 nM |
| – | 7 nM | 400 nM | – | – | – | PP, avian (peptide) | – |
| – | 61 nM | 98 nM | – | – | – | PP, frog (peptide) | Ki (rat Y4 receptor (rat)): 0.19 nM; Ki [4]: 62 nM |
| – | 3.2 nM | 0.2 nM | – | – | – | PP, salmon (peptide) | EC50, inhibition of forskolin-stimulated cAMP accumulation, LM(tk-) cells [5]: 110 nM; Ki (rat Y4 receptor (rat)): 0.36 nM; Ki [6]: 3.2 nM |
| – | – | – | 280 nM | – | – | human NPY free acid (from UniProt P01303 29-64) (peptide) | – |
| – | – | – | 0.11 nM | – | – | human peptide YY (from UniProt P10082 29-64) | fold higher affinity than at hp25a [8]: 5 to 10 fold |
| – | 5.6 nM | 2.4 nM | 0.41 nM | 4.4 nM | – | porcine NPY2-36 (from UniProt P01304 11-45) (peptide) | – |
| 2.5 nM | 38 nM | 70 nM | – | 39 nM | 51 nM | porcine NPY13-36 (from UniProt P01304 22-45) (peptide) | Ki (rat Y4 receptor (rat)): 135 nM |
| 3.6 nM | 54 nM | 41 nM | 5 nM | – | 45 nM | porcine NPY16-36 (from UniProt P01304 25-45) (peptide) | – |
| – | – | 70 nM | 2.1 nM | 63 nM | 28 nM | porcine NPY18-36 (from UniProt P01304 27-45) (peptide) | Ki [6]: > 290 nM |
| – | 120 nM | 63 nM | 3.1 nM | 100 nM | 62 nM | porcine NPY20-36 (from UniProt P01304 29-45) (peptide) | – |
| 18 nM | – | – | 3.2 nM | 140 nM | 170 nM | porcine NPY22-36 (from UniProt P01304 31-45) (peptide) | fold loss in affinity against full length porcine NPY [11]: 120 fold; fold loss in affinity against full length porcine NPY [12]: 3500 fold; fold loss in affinity against full length porcine NPY [8]: 11 fold |
| 380 nM | – | – | 70 nM | – | > 300 nM | porcine NPY26-36 (from UniProt P01304 35-45) (peptide) | – |
